Experiment: In vitro enzyme assay: formation of vanillin with isoeugenol as the substrate
Assay type: biochemical
Settings: purified recombinant protein; 10 mM isoeugenol, pH 7.0, 30° C., 10 min; negative control heat-denatured enzyme gave no vanillin
Description: The enzyme activity of the putative isoeugenol monooxygenase was assayed by measuring the formation of vanillin with isoeugenol as the substrate. The reaction mixture contained 10 mM isoeugenol, 100 mM potassium phosphate buffer (pH 7.0), 10% (v/v) ethanol and an appropriate amount of enzyme, in a total volume of 1 ml. The reaction was started, by adding isoeugenol as ethanol solution, carried out at 30° C. for 10 min with reciprocal shaking (160 strokes min^−1) and stopped with the addition of 1 ml of methanol. After centrifugation at […], the supernatant was analyzed by HPLC for the determination of isoeugenol and vanillin and vanillyl alcohol. VpIEM enzyme treated in boiling water for 5 minutes was used as the negative control.
HPLC analysis of isoeugenol and vanillin was carried out with a Vanquish Ultimate 3000 system. Intermediates were separated by reverse-phase chromatography on a Dionex Acclaim 120 C18 column (particle size 3 μm; 150 by 2.1 mm) with a gradient of 0.15% (volume/volume) acetic acid (eluant A) and methanol (eluant B) in a range of 60 to 100% (vol/vol) eluant B and at a flow rate of 0.4 ml/min. For quantification, all intermediates were calibrated with external standards. The compounds were identified by their retention times, as well as the corresponding spectra, which were identified with a diode array detector in the system.

B1: VpIEM: putative isoeugenol monooxygenase from Violaceomyces palustris, expressed in E. coli and purified (protein, listed as Violaceomyces paulstris)
chain: MAPAPTVQDAAPVAVAVPSKATNKGSFVHPTDILPSGWPTATDLSGGAQPRRFEGTIYDVMVRGTIPKELHGTFYRIMPDYAEAPTYYKGGELNAPIDGDGTVAAFRFKDGNVDYRQRFVETDRFKVERRARKSMYGLYRNPYTHHPCVRQTVDSTANTNVVMHAGRFLAMKENGNAYELDPHTLKTLGYNPFKLPSKTMTAHPKQDAVTGNLVGFGYEAKGLATKDVYYFEVDTQGNIVHDLWLEAPWCAFIHDCALTPNYLVLMLWPFEADIERMKAGGHHWAYDYDKPITWITIPRGAKSKDEVKYWYWKNGMPIHTAAGYEDEKGRIIIDSSLVHGNAFPFFPPDSEEQRKRQEADGTPIAQFVRWTIDPSKDPNERLPDPEVVLDTPSEFPQIDNRFMGKEYSSAFINVFMPDRSDTGKNVFQGLNGLCHYRRKEGTADFYYAGDNCLIQEPVFSPRSKDAPEGDGFVLAIVDRLDANRSEVVIIDTRDFTKAVAAVQLPFAIRSGIHGQWIQGNTIPDFDTRGLVDLPKEEHWAPPEASAYDPNM
modifications: (1)..(551) Amino Acid Sequence of VpIEM
conversion of isoeugenol to vanillin (enzyme activity, HPLC): able to catalyze the conversion of isoeugenol to vanillin

Reference: patent US20240052381A1, “BIOSYNTHESIS OF VANILLIN FROM ISOEUGENOL” (BASF SE, priority 2020, published 2024)
